The values that follow come from publication PMC3507807, “DNA binding specificity of ATAF2, a NAC domain transcription factor targeted for degradation by Tobacco mosaic virus” (BMC Plant Biology, 2012).

In series [1] the target is T1, ATAF2 (Arabidopsis thaliana) (UniProt Q9C598).
T1 sequence: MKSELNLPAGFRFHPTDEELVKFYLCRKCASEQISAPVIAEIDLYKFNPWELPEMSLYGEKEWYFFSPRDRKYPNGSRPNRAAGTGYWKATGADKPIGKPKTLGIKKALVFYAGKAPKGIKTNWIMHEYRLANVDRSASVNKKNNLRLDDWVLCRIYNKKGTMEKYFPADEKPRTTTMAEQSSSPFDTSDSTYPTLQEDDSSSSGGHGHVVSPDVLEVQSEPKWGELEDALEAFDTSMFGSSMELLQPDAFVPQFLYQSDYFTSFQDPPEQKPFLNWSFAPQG
The series can be described thus: EMSA. The note with it: EMSA: 20 mM Tris-HCl pH 8.0, 60 mM KCl, 5 mM MgCl2, 100 ug/ml BSA, 5% glycerol, 1 mM DTT, 0.5 ug poly(dI-dC) in 10 ul, 100-300 fmol probe, 25 C 30 min. In general terms: In EMSA bound probe runs differently from free probe, usually more slowly.

Series [2] addresses T2, ATAF2 (Arabidopsis thaliana, UniProt Q9C598 1-283).
T2 sequence: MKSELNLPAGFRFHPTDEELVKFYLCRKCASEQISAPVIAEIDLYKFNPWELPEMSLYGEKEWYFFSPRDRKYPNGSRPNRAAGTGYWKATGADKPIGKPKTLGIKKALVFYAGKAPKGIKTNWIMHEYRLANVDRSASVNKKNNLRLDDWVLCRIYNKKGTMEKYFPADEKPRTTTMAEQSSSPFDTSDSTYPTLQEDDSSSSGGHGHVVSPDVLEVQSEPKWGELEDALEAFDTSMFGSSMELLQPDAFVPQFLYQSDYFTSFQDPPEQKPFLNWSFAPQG
The series can be described thus: EMSA; binding not dramatically reduced; EMSA: 20 mM Tris-HCl pH 8.0, 60 mM KCl, 5 mM MgCl2, 100 ug/ml BSA, 5% glycerol, 1 mM DTT, 0.5 ug poly(dI-dC) in 10 ul, 100-300 fmol probe, 25 C 30 min; 5% native PAGE, 0.5X TBE. Footprint: same binding buffer, 10 fmol probe. The note with it: protein: recombinant; tags: N-terminal His6 (pTrcHisA); chain copies: 2; label: 5'-32P.

Series [3] deals with the molecule itself. The series can be described thus: SEC; Superdex-200 HR 10/30; ~160 ug purified protein, incubated 20 min at room temperature and run in 25 mM Tris-HCl pH 7.5, 10% glycerol, 500 mM NaCl, 0.5 mM EDTA; fractions checked by SDS-PAGE; mass markers 670, 158, 44 and 17 kDa.

Take “TCAGAAGAGCAAGAAAATTAAAACACATAT (double strand) [M3 (nt 13-14 TC to GA)]”: the binding signal in series [1] (stated as 47% reduction) is 53 % of WT.

Consider “TCAGAAGAGCAAGTCCCCTAAAACACATAT (double strand) [C2 (nt 13-18 TCAAAT to GTCCCC)]”, for which the binding signal in series [1] (reduction >85%) was < 15 % of WT.

Take “TCAGAAGAGCAATCAAACCAAAACACATAT (double strand) [M4 (nt 18-19 TT to CC)]”: in series [1] (stated as 87% reduction), the binding signal is 13 % of WT.

Turning to “TCAGAAGAGCAATCAAATTAAAACACATAT (double strand) [30-bp ATAF2 binding sequence (wild type)]”, the binding signal in series [1] was 100 % of WT.

Turning to “TCAGAAGAGCAATCAAATTAAAGAACATAT (double strand) [M5 (nt 23-24 AC to GA)]”, the binding signal in series [1] (stated as 96% reduction) was 4 % of WT.

As for “TCAGAAGAGCAATCAAATTAATTTTTTTAT (double strand) [C3 (nt 22-27 AACACA to TTTTTT)]”, in series [1] (reduction >85%), the binding signal is < 15 % of WT.

For the molecule “TCCAAAGAGCAATCAAATTAAAACACATAT (double strand) [M1 (nt 3-4 AG to CA)]”, the binding signal in series [1] (stated as 91% reduction) was 9 % of WT.

For “TCTTTTTAGCAATCAAATTAAAACACATAT (double strand) [C1 (nt 3-7 AGAAG to TTTTT)]”, the binding signal in series [1] (reduction >85%) was < 15 % of WT.

B1: M2 (dsDNA)
DNA 1: TCAGAAGTACAATCAAATTAAAACACATAT
DNA 2: ATATGTGTTTTAATTTGATTGTACTTCTGA
Turning to B1, the binding result in series [2] is “binds”.

B2: M6 (dsDNA)
DNA 1: TCAGAAGAGCAATCAAATTAAAACACACCT
DNA 2: AGGTGTGTTTTAATTTGATTGCTCTTCTGA
B2: in series [2], the binding result was “binds”.

B3: ATAF2 NAC domain (ATAF2-165, 1 aa to 165 aa) (domain or fragment, Arabidopsis, UniProt Q9C598 1-165, looked up)
chain: MKSELNLPAGFRFHPTDEELVKFYLCRKCASEQISAPVIAEIDLYKFNPWELPEMSLYGEKEWYFFSPRDRKYPNGSRPNRAAGTGYWKATGADKPIGKPKTLGIKKALVFYAGKAPKGIKTNWIMHEYRLANVDRSASVNKKNNLRLDDWVLCRIYNKKGTMEK
notes: ATAF2 (AT5g08790), Arabidopsis thaliana NAC domain transcription factor, truncated version containing only the NAC domain, residues 1-165; source: E. coli BL21 (+), pTrcHisA, purified (Ni-NTA)
For the molecule B3, the “stoichiometry N” value in series [3] stood at 2.

Usually stoichiometry N stands for the number of molecules, sites or subunits per partner or assembly.
